Earlier results on one molecule are cited in paper PMC2582146 (Biochemistry, 2008).

For this series, the target named is N1P1 domain. The settings on record: read-out: affinity.

B1: C-terminal 70 residues of CFTR: C-terminal 70 residues of CFTR, literature construct (ref 41) (protein, UniProt P13569 1411-1480, looked up, fragment)
chain: QQFLVIEENKVRQYDSIQKLLNERSLFRQAISPSDRVKLFPHRNSSKCKSKPQIAALKEETEEEVQDTRL
With B1, the Kd was 298 nM.
